B1: importin β m-N/m-C (natural protein)
chain: MELITILEKTVSPDRLELEAAQKFLERAAVENLPTFLVELSRVLANPGNSQVARVAAGLQIKNSLTSKDPDIKAQYQQRWLAIDANARREVKNYVLQTLGTETYRPSSASQCVAGIACAEIPVNQWPELIPQLVANVTNPNSTEHMKESTLEAIGYICQDIDPEQLQDKSNEILTAIAQGMRKEEPSNNVKLAATNALLNSLEFTKANFDKESERHAIMQVVCEATQCPDTRVRVAALQNLVKIMSLYYQYMETAMGPALFARTIEAMKSDIDEVALQGIEFWSNVCDEEMDLAIEASEAAEQGRPPEHTSKFYAKGALQYLVPILTQTLTKQDENDDDDDWNPCKAAGVCLMLLATCCEDDIVPHVLPFIKEHIKNPDWRYRDAAVMAFGCILEGPEPSQLKPLVIQAMPTLIELMKDPSVVVRDTAAWTVGRICELLPEAAINDVYLAPLLQCLIEGLSAEPRVASNVCWAFSSLAEAAYEAADVADDQEEPATYCLSSSFELIVQKLLETTDRPDGHQNNLRSSAYESLMEIVKNSAKDCYPAVQKTTLVIMERLQQVLQMESHIQSTSDRIQFNDLQSLLCATLQNVLRKVQHQDALQISDVVMASLDRMFQSTAGSGGVQEDALMAVSTLVEVLGGEFLKYMEAFKPFLGIGLKNYAEYQVCLAAVGLVGDLCRALQSNIIPACDEVMQLLLENLGNENVHRSVKPQILSVFGDIALAIGGEFKKYLEVVLNTLQQASQAQVDKSDYDMVDYLNELRESCLEAYTGIVQGLKGDQENVHPDVMLVQPRVEFILSFIDHIAGDEDHTDGVVACAAGLIGDLCTAFGKDVLKLVEARPMIHELLTEGRRSKTNKAKTLATWATKELRKLKNQA
B2: importin β (304–876) F688A (domain or fragment, human, UniProt Q14974 304-876, looked up)
chain: GRPPEHTSKFYAKGALQYLVPILTQTLTKQDENDDDDDWNPCKAAGVCLMLLATCCEDDIVPHVLPFIKEHIKNPDWRYRDAAVMAFGCILEGPEPSQLKPLVIQAMPTLIELMKDPSVVVRDTAAWTVGRICELLPEAAINDVYLAPLLQCLIEGLSAEPRVASNVCWAFSSLAEAAYEAADVADDQEEPATYCLSSSFELIVQKLLETTDRPDGHQNNLRSSAYESLMEIVKNSAKDCYPAVQKTTLVIMERLQQVLQMESHIQSTSDRIQFNDLQSLLCATLQNVLRKVQHQDALQISDVVMASLLRMFQSTAGSGGVQEDALMAVSTLVEVLGGEFLKYMEAFKPFLGIGLKNYAEYQVCLAAVGLVGDLCRALQSNIIPACDEVMQLLLENLGNENVHRSVKPQILSVFGDIALAIGGEFKKYLEVVLNTLQQASQAQVDKSDYDMVDYLNELRESCLEAYTGIVQGLKGDQENVHPDVMLVQPRVEFILSFIDHIAGDEDHTDGVVACAAGLIGDLCTAFGKDVLKLVEARPMIHELLTEGRRSKTNKAKTLATWATKELRKLKNQA

Columns and labels:
[1] = target: GST–RanGTP (UniProt P62826 1-216); test: ELISA
[2] = target: T1, GST-tagged Nup153 (895–1475) ( (mammalian), UniProt P49790 895-1475); test: ELISA
T1 sequence (looked up): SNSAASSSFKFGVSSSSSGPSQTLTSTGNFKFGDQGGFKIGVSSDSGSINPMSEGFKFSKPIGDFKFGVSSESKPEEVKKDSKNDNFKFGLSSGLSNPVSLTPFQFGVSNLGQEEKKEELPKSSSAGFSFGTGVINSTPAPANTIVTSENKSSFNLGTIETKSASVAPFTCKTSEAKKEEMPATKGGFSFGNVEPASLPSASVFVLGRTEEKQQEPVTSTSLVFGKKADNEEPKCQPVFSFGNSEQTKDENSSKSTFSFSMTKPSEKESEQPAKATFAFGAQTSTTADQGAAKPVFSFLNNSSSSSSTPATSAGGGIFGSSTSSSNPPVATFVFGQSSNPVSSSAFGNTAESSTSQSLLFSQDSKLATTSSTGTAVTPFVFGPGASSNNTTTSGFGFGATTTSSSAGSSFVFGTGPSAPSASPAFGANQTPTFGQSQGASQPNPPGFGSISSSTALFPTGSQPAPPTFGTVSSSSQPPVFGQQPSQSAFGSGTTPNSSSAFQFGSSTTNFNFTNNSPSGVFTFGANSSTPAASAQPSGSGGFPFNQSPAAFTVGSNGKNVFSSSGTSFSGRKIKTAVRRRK

Row | Binder | Kd [1] [nM] | fold decrease in affinity against importin β (304–876) [2] [fold]
1 | B1 | 4.4 | 
2 | B2 |  | ~2
